Drawing on paper PMC6733452, this text covers percent of parent (% capture relative to wild-type ToxR) for five variants.

Sequences and labels used below:
B1: unnamed (parent)
chain 1: MFGLGHNSKEISMSHIGTKFILAEKFTFDPLSNTLIDKEDSEEIIRLGSNESRILWLLAQRPNEVISRNDLHDFVWREQGFEVDDSSLTQAISTLRKMLKDSTKSPQYVKTVPKRGYQLIARVETVEEEMARESEAAHDISQPESVNEYAESSSVPSSATVVNTPQPANVVTNKSAPNLGNRLLILIAVLLPLAVLLLTNPSQTSFKPLTVVDGVAVNMPNNHPDLSNWLPSIELCVKKYNEKHTGGLKPIEVIATGGQNNQLTLNYIHSPEVSGENITLRIVANPNDAIKVCE
chain 2: MGYVRVIYQFPDNLWWNECTNQVYYAQDPMKPERLIGTPSIIQTKLLKILCEYHPAPCPNDQIIKALWPHGFISSESLTQAIKRTRDFLNDEHKTLIENVKLQGYRINIIQVIVSENVVDEADCSQKKSVKERIKIEWGKINVVPYLVFSALYVALLPVIWWSYGQWYQHELAGITHDLRDLARLPGITIQKLSEQKLTFAIDQHQCSVNYEQKTLECTKN

Variants of B1 are the subject of this test. To be noted: with partner chain of the complex shown; parent: 100; read off a plot.
As for chain 1 K114A, the percent of parent (% capture relative to wild-type ToxR) is 110.

chain 1 S102A T103A Q107A V112A: the percent of parent (% capture relative to wild-type ToxR) came to 63.

As for chain 1 Q107A, the percent of parent (% capture relative to wild-type ToxR) stood at 92.

For chain 1 I120A, the percent of parent (% capture relative to wild-type ToxR) stood at 90.

Turning to chain 1 S102A, the percent of parent (% capture relative to wild-type ToxR) came to 84.
